This data set concerns the molecule itself. Put plainly: cross-linking.

Consider 1 protein from article PMC9703647 (Nature, 2022).

B1: GSDMA_(1–246) (domain or fragment, human, UniProt Q96QA5 1-246, looked up)
chain: MTMFENVTRALARQLNPRGDLTPLDSLIDFKRFHPFCLVLRKRKSTLFWGARYVRTDYTLLDVLEPGSSPSDPTDTGNFGFKNMLDTRVEGDVDVPKTVKVKGTAGLSQNSTLEVQTLSVAPKALETVQERKLAADHPFLKEMQDQGENLYVVMEVVETVQEVTLERAGKAEACFSLPFFAPLGLQGSINHKEAVTIPKGCVLAFRVRQLMVKGKDEWDIPHICNDNMQTFPPGEKSGEEKVILIQ
For the protein B1, the binding result is on record as “binds”.
